Experimental findings from publication PMC7914713, “Elucidating the Importance of DOT1L Recruitment in MLL-AF9 Leukemia and Hematopoiesis” (Cancers, 2021) are described below.

The target of the test is T1, MBP-AF9 (MBP carrier left out. The construct limits are not given; the C-terminal ANC1 homology domain (AHD), named as the DOT1L-binding domain, is taken by convention as about 500-568.).
T1 chain: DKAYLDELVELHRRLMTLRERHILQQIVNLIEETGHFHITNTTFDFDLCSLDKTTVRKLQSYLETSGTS
The test can be described thus: fluorescence polarisation; competitive: serial dilutions of peptide with fixed MBP-AF9 (200 nM) and N-Flu-DOT1L (10 nM); 100 mM NaH2PO4, 150 mM NaCl, 0.1% β-ME, 0.01% Triton X-100; room temperature, 3 h. The conditions noted are these: both partners purified. (Polarisation of emitted light reports the rotation of a fluorescent probe.)

B1: DOT1L WT 10mer (865–874) peptide (peptide, UniProt Q8TEK3 865-874, looked up)
peptide: LPISIPLSTV
notes: the DOT1L constructs of the cell lines are human; also called 10mer peptide from residues 865–874; 10mer DOT1L peptide; source: synthetic peptide
One may read the Ki as the equilibrium dissociation constant of an inhibitor or competing ligand from its target. Read a high Ki as weaker binding. For B1, the Ki came to 20 nM.
